In article PMC4871701, “Release of GTP Exchange Factor Mediated Down-Regulation of Abscisic Acid Signal Transduction through ABA-Induced Rapid Degradation of RopGEFs” (PLoS Biology, 2016):

T1: GST-GEF1 (Arabidopsis thaliana, UniProt Q93ZY2 1-548)
T1 construct: RopGEF1 (GEF1), Arabidopsis thaliana; also called GST-tagged GEF1; GST-RopGEF1; source: E. coli Rosetta (DE3) pLysS, purified (Glutathione Sepharose); not shown: GST, N-terminal, kept
T1 sequence (looked up): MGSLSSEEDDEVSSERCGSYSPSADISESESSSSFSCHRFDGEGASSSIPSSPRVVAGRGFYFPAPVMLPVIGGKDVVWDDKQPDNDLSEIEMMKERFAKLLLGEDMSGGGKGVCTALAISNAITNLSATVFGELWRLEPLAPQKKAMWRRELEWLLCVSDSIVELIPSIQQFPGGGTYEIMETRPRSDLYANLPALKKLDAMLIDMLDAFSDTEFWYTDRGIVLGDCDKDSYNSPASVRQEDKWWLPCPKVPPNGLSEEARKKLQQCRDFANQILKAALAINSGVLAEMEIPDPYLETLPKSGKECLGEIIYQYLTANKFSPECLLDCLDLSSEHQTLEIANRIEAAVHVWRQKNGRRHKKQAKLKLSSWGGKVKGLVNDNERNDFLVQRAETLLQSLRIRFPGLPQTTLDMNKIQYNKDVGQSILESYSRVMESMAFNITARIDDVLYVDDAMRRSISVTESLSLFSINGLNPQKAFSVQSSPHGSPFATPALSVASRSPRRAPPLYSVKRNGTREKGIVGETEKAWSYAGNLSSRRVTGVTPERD

B1: StrepII-ROP11 (natural protein)
chain: not shown
notes: ROP11, ROP/RAC small GTPase, Arabidopsis thaliana; also called Strep-II tagged ROP11; source: E. coli Rosetta (DE3) pLysS, purified (Strep-Tactin resin); not shown: Strep-II, N-terminal, kept
B2: StrepII-ABI1 (enzyme, Arabidopsis thaliana, UniProt P49597 1-434, looked up)
chain: MEEVSPAIAGPFRPFSETQMDFTGIRLGKGYCNNQYSNQDSENGDLMVSLPETSSCSVSGSHGSESRKVLISRINSPNLNMKESAAADIVVVDISAGDEINGSDITSEKKMISRTESRSLFEFKSVPLYGFTSICGRRPEMEDAVSTIPRFLQSSSGSMLDGRFDPQSAAHFFGVYDGHGGSQVANYCRERMHLALAEEIAKEKPMLCDGDTWLEKWKKALFNSFLRVDSEIESVAPETVGSTSVVAVVFPSHIFVANCGDSRAVLCRGKTALPLSVDHKPDREDEAARIEAAGGKVIQWNGARVFGVLAMSRSIGDRYLKPSIIPDPEVTAVKRVKEDDCLILASDGVWDVMTDEEACEMARKRILLWHKKNAVAGDASLLADERRKEGKDPAAMSAAEYLSKLAIQRGSKDNISVVVVDLKPRRKLKSKPLN
notes: ABI1, type 2C protein phosphatase, Arabidopsis thaliana; also called Strep-II tagged ABI1; source: E. coli Rosetta (DE3) pLysS, purified (Strep-Tactin resin); not shown: Strep-II, N-terminal, kept

Biological target: T1, GST-GEF1
Experiment: pull-down; GST-GEF1 on Glutathione Sepharose beads as bait, StrepII-tagged input proteins; bound proteins detected by blot for Strep-II
Conditions: both partners purified

Binder	binding result
B1	binds
B2	binds
